According to patent US9725708B2, “Methods of modulating ubiquitin ligase activity” (Board of Supervisors of Louisiana State University and …, priority 2012, dated 2017):
Like-named read-outs stand apart in the source and are kept apart here. No end group written: not given here.

Key:
His6-E6AP ligase = biological target: T1, His6-E6AP ligase (Homo sapiens, UniProt Q05086); experiment: Static light-scattering of His6-E6AP ligase oligomer
T1 construct: Full-length recombinant His6-E6AP ligase was isolated from the medium; made in house; host or cells: Sf9 insect cells (baculovirus)
T1 sequence (Q05086 1-872 isoform Q05086-3): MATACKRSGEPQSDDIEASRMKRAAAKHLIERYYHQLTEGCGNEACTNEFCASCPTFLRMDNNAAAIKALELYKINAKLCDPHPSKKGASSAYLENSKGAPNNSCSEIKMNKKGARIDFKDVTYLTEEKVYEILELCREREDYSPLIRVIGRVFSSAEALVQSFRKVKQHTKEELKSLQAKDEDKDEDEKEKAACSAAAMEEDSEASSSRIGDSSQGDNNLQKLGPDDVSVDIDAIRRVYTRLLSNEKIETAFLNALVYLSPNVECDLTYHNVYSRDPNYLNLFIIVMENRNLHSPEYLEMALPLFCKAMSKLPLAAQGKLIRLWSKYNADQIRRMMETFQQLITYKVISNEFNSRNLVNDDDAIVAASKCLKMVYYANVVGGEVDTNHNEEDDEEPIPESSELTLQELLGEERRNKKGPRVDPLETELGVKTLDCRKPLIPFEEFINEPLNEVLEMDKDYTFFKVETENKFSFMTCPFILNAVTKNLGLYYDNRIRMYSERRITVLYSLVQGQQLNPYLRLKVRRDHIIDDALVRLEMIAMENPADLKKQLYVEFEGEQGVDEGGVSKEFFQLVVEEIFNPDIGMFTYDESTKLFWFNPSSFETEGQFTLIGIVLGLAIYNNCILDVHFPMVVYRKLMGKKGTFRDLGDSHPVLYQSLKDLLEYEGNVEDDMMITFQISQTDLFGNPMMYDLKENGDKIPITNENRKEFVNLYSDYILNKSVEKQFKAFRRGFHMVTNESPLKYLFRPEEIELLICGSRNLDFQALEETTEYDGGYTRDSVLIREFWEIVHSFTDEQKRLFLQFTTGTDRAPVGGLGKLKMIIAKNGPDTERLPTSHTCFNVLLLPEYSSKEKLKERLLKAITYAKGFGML
Experimental: Static Light-scattering Measurements: His6-E6AP ligase after the His trap affinity purification step was further purified by FPLC using a Mono Q 5/50 column (Amersham Biosciences) equilibrated in 50 mM Tris-HCl (pH 7.5) and 1 mM DTT. Recombinant His6-E6AP ligase eluted at 300 mM NaCl in a 0-500 mM gradient (16 mM/ml, 1 ml/min). The molecular weight of His6-E6AP ligase was determined in solution at 37° C. by static light-scattering using a 235-DynaPro NanoStar laser light-scattering spectrometer at 663 nm wavelength (Wyatt Technology Corp.). Spectra were collected for 18 μM His6-E6AP ligase in 50 mM Tris-HCl (pH 7.5) containing 200 mM NaCl. The effect of Ac-PheNH2 on the molecular weight of His6-E6AP ligase was determined in 50 mM Tris-HCl (pH 7.5) containing 200 mM NaCl, 16 μM His6-E6AP ligase total protein, 61 mM Ac-PheNH2, and 8% (v/v) carrier methanol. The molecular weight of E6AP ligase was also evaluated in reactions containing 0-350 μM Ac-NRIRMYSERRITVLYSL (SEQ ID NO: 1) in 50 mM Tris-HCl (pH 7.5), 250 mM NaCl, 1 mM DTT, and 17 μM His6-E6AP. Data were analyzed with Dynamics® software at both default and maximum sensitivity to detect the presence of low concentrations of E6AP ligase oligomeric forms.

E6AP ligase [1] = biological target: T2, E6AP ligase (Homo sapiens, UniProt Q05086); experiment: E6AP-catalyzed 125I-polyubiquitin chain formation, initial rates; format: biochemical; settings: for mode of action: with respect to [UbcH7]o
T2 construct: corresponding to full-length GST-E6AP; made in house; host or cells: E. coli
T2 sequence (Q05086 1-872 isoform Q05086-3): T1 sequence (Q05086 1-872 isoform Q05086-3)
Experimental: (§1) E6AP-catalyzed ^125I-Ubiquitin Conjugation Assay: The E3 ligase activity of recombinant E6AP ligase was quantitated in kinetic assays under initial velocity conditions (Ronchi et al., (2013) J. Biol. Chem. 288, 10349-10360, Ronchi & Haas (2012) Methods Mol. Biol. 832: 197-218). Rates of E6AP-catalyzed ^125I-polyubiquitin chain formation were measured at 37° C. in incubations of 25-μl final volume containing 50 mM Tris-HCl (pH 7.5), 1 mM ATP, 10 mM MgCl2, 1 mM DTT, 10 mM creatine phosphate, 1 IU of creatine phosphokinase, 5 μM ^125I-ubiquitin (approximately 1.5×10^4 cpm/pmol), 50 nM human Uba1, and the indicated concentrations of UbcH7 and E6AP ligase (Siepmann et al., (2003) J. Biol. Chem. 278: 9448-9457; Baboshina et al., (2001) J. Biol. Chem. 276: 39428-39437).
(§2) Reactions were initiated by the addition of ^125I-ubiquitin. After 10-30 min, the reactions were quenched by the addition of 25 μl of 2×SDS sample buffer containing 0.3% (v/v) β-mercaptoethanol, and then the samples were heated to 100° C. for 3 min. The polyubiquitin conjugates were resolved from free ^125I-ubiquitin by 12% (w/v) SDS-PAGE under reducing conditions at 4° C. and visualized by autoradiography of the dried gels.
(§3) Polyubiquitin chain formation was measured by excising lanes between the top of the resolving gel and the top of the stacker gel, representing anchored and free ^125I-polyubiquitin chains, respectively, and quantitating associated ^125I-ubiquitin by γ-counting. Absolute rates of ^125I-polyubiquitin chain formation were calculated from the associated radioactivity and the corrected specific radioactivity for ^125I-ubiquitin. Datum points represent single assay determinations, and complete data sets were evaluated by non-linear regression analysis using GraFit version 5.0 (Erithicus). Active Uba1, E2, and E6AP ligase were independently determined in parallel by their stoichiometric formation of ^125I-ubiquitin thioester.

GST [2] = biological target: T3, GST (Schistosoma japonicum, UniProt P08515); settings: literature value, cited from earlier work
T3 sequence (P08515 whole entry): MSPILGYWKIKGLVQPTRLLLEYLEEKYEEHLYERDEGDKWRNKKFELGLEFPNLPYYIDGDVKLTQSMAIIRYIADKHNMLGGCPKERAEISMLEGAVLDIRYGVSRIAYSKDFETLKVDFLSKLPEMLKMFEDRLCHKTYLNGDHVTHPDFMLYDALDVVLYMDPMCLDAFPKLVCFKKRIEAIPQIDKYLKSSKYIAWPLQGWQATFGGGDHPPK

GST [3] = biological target: T3, GST; experiment: GST dimerization; format: binding; settings: predicted from ΔΔGbinding of GST-E6APΔ495 vs E6APΔ495
E6AP ligase [4] = experiment: E6AP-catalyzed 125I-polyubiquitin chain formation, initial rates; format: biochemical, Human; settings: free GST less than 5 μM; GST-E6AP
Experimental: as §1, §2, §3

[5] = biological target: T4, UbcH7˜ubiquitin thioester (Homo sapiens, UniProt P68036); experiment: Kinetics of 125I-polyubiquitin chain formation by E6AP ligase forms with respect to [UbcH7]o; format: biochemical
T4 construct: made in house
T4 sequence (P68036 whole entry, other chains not shown): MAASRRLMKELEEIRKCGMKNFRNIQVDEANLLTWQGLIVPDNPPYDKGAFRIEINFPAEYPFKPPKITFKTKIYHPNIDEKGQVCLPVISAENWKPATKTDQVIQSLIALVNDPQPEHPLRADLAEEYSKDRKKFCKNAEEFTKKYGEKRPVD
Experimental: as §1, §2, §3

[6] = Table 1, Hect domain row is monoubiquitination
[7] = non-competitive with respect to [UbcH7]o, His6-E6AP, read-out: Ki

CC(=O)N[C@@H](Cc1ccccc1)C(N)=O [Ac-PheNH2, N-acetyl-L-phenylalanylamide]
effect on E6AP ligase oligomer (His6-E6AP ligase): disrupts trimer formation | molecular weight of His6-E6AP ligase peak after addition (His6-E6AP ligase; 61 mM Ac-PheNH2, 16 μM His6-E6AP, 8% methanol): 104 kDa | Ki (E6AP ligase [1]; 125I-polyubiquitin chain formation, read-out: Ki): 12000 ± 3000 µM | Ki (E6AP ligase [1]; His6-E6AP, non-competitive with respect to [UbcH7]o, absence or presence of 44 mM Ac-PheNH2, read-out: Ki): 12000 ± 3000 µM | effect on polyubiquitin chain formation (E6AP ligase [1]; inhibitors, at higher concentrations): quantitative inhibition | mode of action (E6AP ligase [1]): non-competitive inhibitor

Ac-NRIRMYSERRITVLYSL [Ac-NRIRMYSERRITVLYSL peptide, Ac-NRIRMYSERRITVLYSL]
effect on E6AP ligase oligomer (His6-E6AP ligase): promotes dissociation | Ki (E6AP ligase [1]; His6-E6AP, hyperbolic dependence, semi-reciprocal plot, read-out: Ki (apparent)): 22 ± 2 µM | mode of action (E6AP ligase [1]): non-competitive inhibitor

GST: recombinant free glutathione-S-transferase
Kd (GST [2]; b128, read-out: Kd for GST dimerization): 0.6 µM | Kd for GST association, published value (GST [2]; b130): 0.6 µM | Kd for GST association (GST [3]): 1.6 µM | K½ of decrease in initial rate of polyubiquitin chain formation (E6AP ligase [4]): approximately 1 μm

Homogeneous His6-E6AP: baculoviral-expressed full-length His6-E6AP ligase
Km [5]: 0.046 ± 0.007 µM | kcat [5]: 0.63 ± 0.03 s⁻¹ | kcat higher than heterogeneous GST-E6AP [5]: 20 fold | kcat ([5]; Table 1): 6.3 ± 0.3 × 10^−1 s^−1 | Km [5, 6]: 0.046 ± 0.007 µM

B1: E6(HPV16)Δ91: recombinant E6 N-terminal domain encompassing residues 1-91 (protein, UniProt P03126 1-91, looked up, fragment)
chain: MHQKRTAMFQDPQERPRKLPQLCTELQTTIHDIILECVYCKQQLLRREVYDFAFRDLCIVYRDGNPYAVCDKCLKFYSKISEYRHYCYSLY
Ki (E6AP ligase [1]; hyperbolic concentration dependence, not shown, read-out: apparent Ki): 4 µM | Ki (E6AP ligase [1]; [7]): 6 µM | mode of action (E6AP ligase [1]): non-competitive inhibition

B2: GST-E6AP ligase Hect domain: GST fusion of E6AP ligase Hect domain residues 450-852 (protein, UniProt Q05086 450-852, looked up, fragment)
chain: INEPLNEVLEMDKDYTFFKVETENKFSFMTCPFILNAVTKNLGLYYDNRIRMYSERRITVLYSLVQGQQLNPYLRLKVRRDHIIDDALVRLEMIAMENPADLKKQLYVEFEGEQGVDEGGVSKEFFQLVVEEIFNPDIGMFTYDESTKLFWFNPSSFETEGQFTLIGIVLGLAIYNNCILDVHFPMVVYRKLMGKKGTFRDLGDSHPVLYQSLKDLLEYEGNVEDDMMITFQISQTDLFGNPMMYDLKENGDKIPITNENRKEFVNLYSDYILNKSVEKQFKAFRRGFHMVTNESPLKYLFRPEEIELLICGSRNLDFQALEETTEYDGGYTRDSVLIREFWEIVHSFTDEQKRLFLQFTTGTDRAPVGGLGKLKMIIAKNGPDTERLPTSHTCFNVLLLPEY
modifications: HECT domain GST fusion
Km [5]: 0.089 ± 0.011 µM | kcat lower than full-length E6AP ligase [5]: 2000 fold | kcat ([5]; Table 1): 3.2 ± 0.1 × 10^−4 s^−1 | Km [5, 6]: 0.089 ± 0.011 µM

B3: E6(HPV16)Ct: recombinant E6 C-terminal domain encompassing residues 89-158 (protein, UniProt P03126 89-158, looked up, fragment)
chain: SLYGTTLEQQYNKPLCDLLIRCINCQKPLCPEEKQRHLDKKQRFHNIRGRWTGRCMSCCRSSRTRRETQL
Ki (E6AP ligase [1]; [7]): 4 µM | mode of action (E6AP ligase [1]): non-competitive inhibitor
